Holding throughout (type): physicochemical
The nature of data set [1]: FTIR spectroscopy: ratio of alpha and beta sheets. The note with it: 5.0 mg/ml and 75 mg/mL named; phosphate buffer, m-cresol, sodium chloride (Table 2). As for the experimental part:
The physical and chemical stability of the stored formulations is determined with the help of the following tests: • Dynamic light scattering (DLS) method was applied to access the subvisible particle size distribution • Fourier transform infrared spectroscopy (FTIR) to analyze the ratio of alpha and beta sheets • Chemical stability (purity and impurities), determined by HPLC • Proteins of high molecular weight, determined by HPSEC
FTIR spectroscopy is a suitable method for the determination of a protein's secondary structure. The vibration giving the most pronounced signal in FTIR spectroscopy is the C═O stretching vibration of amide groups resulting in a signal in the so-called amide I-region (1700-1600 cm^−1). This vibration is sensitive to the hydrogen-bonding pattern, dipole-dipole interactions and the geometry of the polypeptide backbone. […]
As a consequence, the individual component bands that represent the different structural elements, such as α-helices, β-sheets, turns and irregular structures are often not resolved and difficult to identify in the broad amide I-band contours of the experimentally obtained spectra. […] The absolute values for protein conformation determined by the chemometric method can therefore be systematically biased, however, the repeatability of results for samples of the same protein is usually in the range of +/−2%. […]

Data set [2] in a line: Small angle X-ray scattering (SAXS): oligomer size and shape. The note with it: in the formulations. The procedure:
SAXS measurements were performed at a synchrotron light source (DESY Hamburg). The scattering data from all samples were collected loading 20 microliters of solutions into the capillary and flowing the whole volume across the X-ray beam. Per each sample 20 frames of 0.045 s exposure were collected and, after a statistical consistency check, averaged. The corresponding signals collected for the placebo was then subtracted. Each sample measurement was repeated at least twice to ensure reproducibility.

Data set [3] can be described thus: ThT assay: fibrillation tendency under thermal and mechanical stress. As for the experimental part: Investigations were carried out to determine fibrillation tendencies under stress conditions using a ThT assay. […] Amyloid-like structures show a beta-sheet rich structure. Fibrillation of peptide solutions is induced by thermic and mechanical stress. Samples are stressed under defined conditions using Fluoroskan Ascent FL.
For the tests in Fluoroskan Ascent FL 200 μL sample were placed into 96 well microtiterplate PS, flat bottom, Greiner Fluotrac No. 655076. Plates were sealed with Scotch Tape (Quiagen). […] The kinetic was monitored by measuring fluorescence intensity every 20 minutes.
Solutions were transferred in 2 mL Eppendorf vials and 20 μL of a 10.1 mM ThT solution in H2O were added to 2 mL of peptide solution to receive a final concentration of 100 μM ThT. For each sample eight replicates were tested.

Data set [4] in a line: Rheology with rotation and capillary rheometer. The settings on record: Table 2 composition, 5.0 mg/ml; shear rates>1/s. As for the experimental part:
To this end, a composition as described above in Table 2 containing 5.0 mg/ml SEQ ID NO.: 2 was added to a rheometer and subjected to measurement. The experiments were performed with a MCR rotation rheometer (Anton Paar) and with capillary rheometer Kinexus (Malvern). […] High shear rates have no influence on the shear viscosity of the formulation (see also FIG. 7).

The source of these data is patent US11590206B2, “Liquid pharmaceutical composition” (SANOFI, priority 2017, dated 2023).

“H-dSer-Q-G-T-F-T-S-D-L-S-K-Q-K(γE-x53)-ESKAAQDFIEWLKAGGPSSGAPPPS-NH2 (HXQGTFTSDLSKQKESKAAQDFIEWLKAGGPSSGAPPPS; D-Ser1, K14 gammaE-palmitoyl lipidation, C-terminal amide; Exendin-4 analogue; MOD_RES (2)..(2) Xaa is a D-Ser; MOD_RES (14)..(14) Lys is functionalized at the amino side chain group as Lys((S)-4-carboxy-4-hexadecanoylamino-butyryl); MOD_RES (39)..(39) Ser is modified with an NH2 group) [SEQ ID NO.: 2, γE-x53 is (S)-4-Carboxy-4-hexadecanoylamino-butyryl-]”: in data set [1], the “measured value of alpha sheets (FTIR)” value came to 48.9% and the “measured value of beta sheets (FTIR)” value is recorded as 13.1%. Moreover, the “Oligomeric state (best fit of SAXS curve)” value in data set [2] is listed as “all hexameric”. The “Fibrillation (ThT fluorescence)” value in data set [3] (1 mg/ml in PBS, 100 h incubation at +37° C. and 500 rpm) was “negligible fibrillation”. For the same substance, in data set [3] (5 mg/mL in phosphate buffer, NaCl and m-cresol, pH≈6.6, 100 hours at 37° C. shaking (500 rpm)), the “Fibrillation (ThT fluorescence)” value is reported as “no fibrillation was observed”. The “fluid property (shear stress, viscosity vs shear rate)” value in data set [4] is “Newtonian fluid”.
